What was measured:
FZD6–FZD6 dimer = experiment: dynamic FCCS of V5-FZD6-mCherry/FZD6-GFP; type: cell-based, human; conditions: HEK293
Procedure: HEK293 cells were grown over-night in Lab-Tek eight-well chamber-glass bottom slides (Nunc, Thermo Scientific, Langensbold, Germany) coated with matrigel. Data were acquired in 10 s intervals. Collection intervals containing abnormal fluorescence peaks (presumably resulting from aggregates or ROIs where the overall fluorescence was decaying, putatively due to membrane movements) were discarded from the overall analysis. The total included measurements time ranged from 20 to 80 s per cell. Measurements were only undertaken on cells where the fluorescence was well localized to the cell surface membrane, as judged by visual inspection in the wide-field and confocal mode. Autofluorescence, as well as fluorescence from both GFP and mCherry in the intracellular region was negligible. The number of fluorescent receptors assessed in each experiment varied from 10–1000 receptors per µm^2 in each HEK293 cell.
Dynamic FCCS measurements of WNT-dependent dissociation and re-association of FZD (Fig. 5c–e) were performed on an FCS/FCCS-equipped Zeiss 780 confocal microscope (Zeiss, Jena, Germany). The instrument details were the same as those of the Confocor 3 described above, with the exception that 561 nm excitation was used for excitation of mCherry, that GFP emission was detected from 500 to 550 nm, and that mCherry emission was detected from 600 to 690 nm. Experiments on cells were performed as described above, with each measurement point consisting of 3–6 measurements of 10 s each. […]
Assuming that M is FZD6-GFP (green) and N is FZD6-mCherry (red) and that all FZD6 form dimers, then the probability of finding a green–red FZD6 dimer is pgr=2×M×N/(M+N)(M+N-1)≈2×M×N/M+N^2=(2cgg+cgr)(2crr+cgr)/2cgg+cgr+crr^2 , where c gg, c gr, and c rr are the corresponding concentrations of the only green FZD6 dimers, the red and green FZD6 dimers and the only red FZD6 dimers. […] From the experiments, we determine the concentrations for c gg, c gr and c rr and compare the concentrations c gr with the c′gr for each cell to get an estimation of how close the model is to experimental data: cgr/c′gr=2cgr×(cgg+cgr+crr)/((2cgg+cgr)(2crr+cgr)) Analysis of the dynamic FCCS measurements of WNT-dependent dissociation and re-association of FZD6: Auto-correlation and cross-correlation curves were analyzed as described above and the amplitudes G g(0)−1, G r(0)−1, and G cc(0)−1 from each of the more than 300 measurements of 10 s duration were estimated by fitting to theoretical models. […]
With the settings described above for detection of emission, the crosstalk from the GFP channel to the mCherry channel, defined as the intensity detected in the mCherry channel divided by the intensity detected in the GFP channel, I r/I g, for a cell expressing only FZD-GFP, was 0.051 or 5.1 %. […]

SNAP-FZD6 = SNAP-FZD6 internalization by confocal microscopy; type: cell-based; conditions: HEK293; WNT-5A 300 ng ml^−1, 15 min
Procedure: SNAP-FZD6 and SNAP-β2-AR were imaged in living cells using a Zeiss LSM710 equipped with a 40×, 1.2 NA C-Apochromat objective. The cell-impermeable SNAP substrate SNAP-Surface 549 (New England Biolabs) was added (1:1000, 15 min), washed twice in BE buffer and imaged using the 561 nm laser line. SNAP-FZD6 and SNAP-β2-AR were stimulated with 300 ng ml^−1 WNT-5A and 10 µM isoproterenol, respectively, and fluorescence was monitored over time.

[1] = representative cell, G cc normalized to green auto-correlation amplitude, WNT-5A

B1: WNT-5A: recombinant carrier-free WNT-5A (R&D Systems), agonist for FZDs (protein, UniProt P41221 62-380, looked up)
Protein Wnt-5a: IIGAQPLCSQLAGLSQGQKKLCHLYQDHMQYIGEGAKTGIKECQYQFRHRRWNCSTVDNTSVFGRVMQIGSRETAFTYAVSAAGVVNAMSRACREGELSTCGCSRAARPKDLPRDWLWGGCGDNIDYGYRFAKEFVDARERERIHAKGSYESARILMNLHNNEAGRRTVYNLADVACKCHGVSGSCSLKTCWLQLADFRKVGDALKEKYDSAAAMRLNSRGKLVQVNSRFNSPTTQDLVYIDPSPDYCVRNESTGSLGTQGRLCNKTSEGMDGCELMCCGRGYDQFKTVQTERCHCKFHWCCYVKCKKCTEIVDQFVCK
FZD6–FZD6 interaction upon stimulation (FCCS) (FZD6–FZD6 dimer; WNT-5A 300 ng ml^−1): a transient decrease in FZD6–FZD6 interaction | red molecules also green at maximal dimer dissociation (FZD6–FZD6 dimer; [1]): 6% | red molecules also green upon dimer re-association (FZD6–FZD6 dimer; [1]): 21% | internalization of SNAP-FZD6 (SNAP-FZD6): minimal internalization of SNAP-FZD6 was observed and this was not enhanced by the addition of recombinant WNT-5A

From PMC5548745, “Agonist-induced dimer dissociation as a macromolecular step in G protein-coupled receptor signaling” (Nature Communications, 2017)
